Among the targets are micro-plasmin (UniProt P00747); mini-plasmin (human) (UniProt P00747); plasmin (human) (UniProt P00747).
Common to all, as to assay: cell-based or functional assay
Experiment [1] concerns the target delta-plasmin (human (recombinant deletion mutant of human plasminogen, made in E. coli)) (UniProt P00747).

B1: α2-antiplasmin (protein, UniProt P08697 40-491, looked up)
chain: NQEQVSPLTLLKLGNQEPGGQTALKSPPGVCSRDPTPEQTHRLARAMMAFTADLFSLVAQTSTCPNLILSPLSVALALSHLALGAQNHTLQRLQQVLHAGSGPCLPHLLSRLCQDLGPGAFRLAARMYLQKGFPIKEDFLEQSEQLFGAKPVSLTGKQEDDLANINQWVKEATEGKIQEFLSGLPEDTVLLLLNAIHFQGFWRNKFDPSLTQRDSFHLDEQFTVPVEMMQARTYPLRWFLLEQPEIQVAHFPFKNNMSFVVLVPTHFEWNVSQVLANLSWDTLHPPLVWERPTKVRLPKLYLKHQMDLVATLSQLGLQELFQAPDLRGISEQSLVVSGVQHQSTLELSEVGVEAAAATSIAMSRMSLSSFSVNRPFLFFIFEDTTGLPLFVGSVRNPNPSAPRELKEQQDSPGNKDFLQSLKGFPRGDKLFGPDLKLVPPMEEDYPQFGSPK
In the experiment with micro-plasmin, B1 had an inhibition rate (22° C., PBS, pH 7.4; residual S-2251 activity) of 180000 M^-1s^-1 and an inhibition rate (second separate experiment; residual S-2251 activity) of 310000 M⁻¹ s⁻¹. The molecule also showed an inhibition rate (22° C., PBS, pH 7.4; residual S-2251 activity) with mini-plasmin (human) of 240000 M^-1s^-1. Moreover, in experiment [1], the fold change of inhibition rate against micro-plasmin or mini-plasmin worked out at 40 fold and the inhibition rate (22° C., PBS, pH 7.4; residual S-2251 activity) stood at 1.1e+07 M^-1s^-1.

B2: α2-macroglobulin (protein, UniProt P01023 24-1474, looked up)
chain: SVSGKPQYMVLVPSLLHTETTEKGCVLLSYLNETVTVSASLESVRGNRSLFTDLEAENDVLHCVAFAVPKSSSNEEVMFLTVQVKGPTQEFKKRTTVMVKNEDSLVFVQTDKSIYKPGQTVKFRVVSMDENFHPLNELIPLVYIQDPKGNRIAQWQSFQLEGGLKQFSFPLSSEPFQGSYKVVVQKKSGGRTEHPFTVEEFVLPKFEVQVTVPKIITILEEEMNVSVCGLYTYGKPVPGHVTVSICRKYSDASDCHGEDSQAFCEKFSGQLNSHGCFYQQVKTKVFQLKRKEYEMKLHTEAQIQEEGTVVELTGRQSSEITRTITKLSFVKVDSHFRQGIPFFGQVRLVDGKGVPIPNKVIFIRGNEANYYSNATTDEHGLVQFSINTTNVMGTSLTVRVNYKDRSPCYGYQWVSEEHEEAHHTAYLVFSPSKSFVHLEPMSHELPCGHTQTVQAHYILNGGTLLGLKKLSFYYLIMAKGGIVRTGTHGLLVKQEDMKGHFSISIPVKSDIAPVARLLIYAVLPTGDVIGDSAKYDVENCLANKVDLSFSPSQSLPASHAHLRVTAAPQSVCALRAVDQSVLLMKPDAELSASSVYNLLPEKDLTGFPGPLNDQDNEDCINRHNVYINGITYTPVSSTNEKDMYSFLEDMGLKAFTNSKIRKPKMCPQLQQYEMHGPEGLRVGFYESDVMGRGHARLVHVEEPHTETVRKYFPETWIWDLVVVNSAGVAEVGVTVPDTITEWKAGAFCLSEDAGLGISSTASLRAFQPFFVELTMPYSVIRGEAFTLKATVLNYLPKCIRVSVQLEASPAFLAVPVEKEQAPHCICANGRQTVSWAVTPKSLGNVNFTVSAEALESQELCGTEVPSVPEHGRKDTVIKPLLVEPEGLEKETTFNSLLCPSGGEVSEELSLKLPPNVVEESARASVSVLGDILGSAMQNTQNLLQMPYGCGEQNMVLFAPNIYVLDYLNETQQLTPEIKSKAIGYLNTGYQRQLNYKHYDGSYSTFGERYGRNQGNTWLTAFVLKTFAQARAYIFIDEAHITQALIWLSQRQKDNGCFRSSGSLLNNAIKGGVEDEVTLSAYITIALLEIPLTVTHPVVRNALFCLESAWKTAQEGDHGSHVYTKALLAYAFALAGNQDKRKEVLKSLNEEAVKKDNSVHWERPQKPKAPVGHFYEPQAPSAEVEMTSYVLLAYLTAQPAPTSEDLTSATNIVKWITKQQNAQGGFSSTQDTVVALHALSKYGAATFTRTGKAAQVTIQSSGTFSSKFQVDNNNRLLLQQVSLPELPGEYSMKVTGEGCVYLQTSLKYNILPEKEEFPFALGVQTLPQTCDEPKAHTSFQISLSVSYTGSRSASNMAIVDVKMVSGFIPLKPTVKMLERSNHVSRTEVSSNHVLIYLDKVSNQTLSLFFTVLQDVPVRDLKPAIVKVYDYYETDEFAIAEYNAPCSKDLGNA
Take B2: the inhibition rate (22° C., PBS, pH 7.4) turned out to be 780000 M^-1s^-1 in the experiment with micro-plasmin, 750000 M^-1s^-1 with mini-plasmin (human), 650000 M^-1s^-1 in the experiment with plasmin (human) and 760000 M^-1s^-1 in experiment [1].
